Test results taken from the DeepSol protein solubility set.

Test: soluble on expression in E. coli; label from the status in PepcDB or PDB records

| Sequence | soluble on expression in E. coli |
| --- | --- |
| MSQNVYQFIDLQRVDPPKKPLKIRKIEFVEIYEPFSETQAKAQADRCLSCGNPYCEWKCPVHNYIPNWLKLANEGRIMEAADLAHQTNSLPEVCGRVCPQDRLCEGSCTLNDEFGAVTIGNIERYISDKAIAMGWKPDMSHVHPTGKRVAVIGAGPAGLACADVLARNGVQAVVFDRHPEIGGLLTFGIPAFKLEKEVMIKRRKIFSEMGIEFQLNTEVGKDITMEALLKDYDAVFLGVGTYQSMRGGLENEEANGVYDALPFLIANTKQLMGYEATAHEPYINMQGKRVVVLGGGDTAMDCVRSSIRQGATDVVCAYRRDEVNMPGSKREVKNAREEGVEFKFNLQPLSIEVNSNGKVCGVRMVRTQLGAPDAQGRRMAEQIPGSEHVLPADAVVMAFGFRPHSMEWLAAHDVKLDKQGRVIAPESTDNAFQTSNPKIFAGGDIVRGSDLVVTAIAEGRKAADGIMNYLEV | not soluble |
| MSQQKIGVLLVNLGTPEHPTAPAIRKFLKPFLADSRVIDYPKFLWKPILYSFILPFRPRKVKPLYQHVWTNEGSPLYANAIGQEKALQAHFDQSEHGVLVRATMAYSKPSISDVVDEFLKEKVAKMIVLPLFPQYSSTTTAAIFDAFAQSLKKKKDIPPFDFIHHYYERPSYIQALAQTIHLQENEHLLFSFHGIPQRYVIEGDYYTEHCQQTAQLIAVAAGLSEEQWQVSYQSRFGPEEWTRPYTDETLIQLPKQGKKKLAVICPGFAADCLETLEEIDITNRKHFMAAGGQAYRYIPALNASPAHIQLLAELISERL | not soluble |
| MSQTIGRIEEISFYSASLQDDVTLLVYLPVNYTPLHKHTVVIAQDGRDYFQLGKAHRVIERLRETEEIDRTIIVGIPYKNVHDRKEKYFPNEVKNAAYIRFLAHELAPYIDENYPTYQMGKGRVLIGDSLGGTVSFMTALMYPHTFGKVVMQSPFVDETVMNLAKEFKDPQALELYHVIGTEETAVKRTDGQVSDFVGPNRELNTLLTDRNFITHYEEFEGNHTWKYWQTDLPKAFSHILSMK | not soluble |
| MSQTKIEWADKVWNPVSGCTKISEGCQNCYAERMSKRLAGRCGYPAEEPFKVTPHPEKLGEPLKWRKPLRIFVNSMSDLFHADVPDKFIINVLSMIAEASHHTFLILTKRPERMRELLNHDTIANDVWLQTSRGVNAERSPWPLPNLWLGVSAENQAAADERIPILLQTPAAVRFVSVEPMLSEVNLSRYLKRPICKHWGRNGDPNIYGRYFWGKQALVGAGWVGIDWVICGGETGPGARPMHPVWVRDLRDQCRVAGTPFFFKSFGEYVRVGECMNEEDDEEFYSKSSAAGTNVQRLNLQGGMGYHGPKSIYMQRIGKKRAGRELDGRTWEEFPLEHHHHHH | not soluble |
| MSQWTTVCKLDDILPGTGVCALVEQQQIAVFRPRNDEQVYAISNIDPFAQASVLSRGIVAEHQDDLWVASPLKKQHFRLYDGFCLEDGAYSVAAYDTQVTNGNVQISIADSDVAVDNSQPLPLEHHHHHH | soluble |
| MSRAASLRAELTSLANAFEEERISSAERLDADLVRQAVEQAKPENLEQWKQVVHDATAKLQQFWEDSEQALIRETYALATSYLRESDDEVHRLQMTKKALEEQLETERRRSTRIEEQLAALQSRLLDSAAPAATTPADDARTQQEVLRSELQGFMQELVRNQRESLRVLQEELQRVREEASVREENLLRQIAHLKTELAVARTDNEVSSRQLRQLETSAGREEVQDELGPGTIWPPHLTPRRGHRRFQRHNRLEDAPAPPEF | not soluble |
| MSRTIWLVRHGQRVDNVDKKWKANNDAKWDDPELTLRGKQQAHEVGKHFANMNIEAIVVSPFTRCIETAAQIVAMMENKAKICVEPGLMEPLYLCKNPPTIPSMDKIKEYSTQVDESYKPVFEKLPISEISLLFSEISLLFPMVLHWQTSTLS | not soluble |
| MSRTTPYRLDDQIGFILRQANQRYAALFANGIGNGLTPTQWAALVRLGETGPCPQNQLGRLTAMDAATIKGVVERLDKRGLIQRSADPDDGRRLLVSLSPAGRAELEAGLAAAREINRQALAPLSLQEQETLRGLLARLI | soluble |
| MSRTYDLASDVIRRVYERRIDAPAILDSASEFPNAAKFTNAWRDIRDEALGVHLGKVPRFHDIMPEQADISANDGLDWRMFVLKAYDMAVPENLARMPVLSRLLAECPEVKSAAISFLAPRKHIPSHRGPFRGIMRFHLGLVIPRQADGRPATIMMIDHQEKRITDGEGMLWDDTYPHEVMNNADETRIALLLDVWRPGMPWDMEMLSRLIVRGVQAGMRRRGVSFSGLEHHHHHH | soluble |
| MSSDAISLRAAGPGDLPGLLELYQVLNPSDPELTTQEAGAVFAAMLAQPGLTIFVATENGKPVATATLLIVPNLTRAARPYAFIENVVTLEARRGRGYGRTVVRHAIETAFGANCYKVMLLTGRHDPAVHAFYESCGFVQNKTGFQIRQD | soluble |
| MSSDHVFKYVIIGDRGVGKSNLLLRFIGKPFDSIHPSTLGIEFGFRNLEIDRKKVKLHVWDTCGQERFRSLVGSYYRHAIGALLVYDITSRESFYHLEHWLTDLQRLGDPDIVIVLIGNKSDLEADREVRKEEGEAFAREFGLIFMEISAKTNEYVEEAFVNSAHEIYRKLNFGIIKEICVKKKKKKMNIIIRSISGKEKACC | not soluble |
| MSSGDQKVKEMFIEQGLHVDWLVRAHTVNSIEGLVYLSEQRHKWAEADQKVIFRILQDYKNSDGELLPEHNPAAPINRKRGTLKTELETFYDVPQVRTLTCELLDMVKEEPSIWDKIRCVDFGCHQRMRQAWCSISLKLGGWGAIQHVHMLKQLYRKKRDLYNVQYLRSGREFEYCEKLSFLKDVLEMAKNDPLDKNIQLDEHLKTATPIIDFDAELLAAPAEIQQILREISEKIDKVTTSQSPGFLAEYLATCCNEVVKHRETLATAGLGDDFN | not soluble |
| MSSGLYSMEKKEFDKVLDLERVKPYGDTMNDGKVQLSFTLPLKNNERSAEAAKQIALKMGLEEPSVVMQQSLDEEFTFFVVYGNFVQSVNYNEIHVEAVNSEILSMEETDEYIKENIGRKIVVVGASTGTDAHTVGIDAIMNMKGYAGHYGLERYEMIDAYNLGSQVANEDFIKKAVELEADVLLVSQTVTQKNVHIQNMTHLIELLEAEGLRDRFVLLCGGPRINNEIAKELGYDAGFGPGRFADDVATFAVKTLNDRMNS | soluble |
| MSSHPPIRSYVLRQGYFSNAQRHAYESLLPRYGIPLTEEPVDLDSIFGRTAPGILEIGSGMGETTAEIARQHPEKDFIAIEVHAPGIGSLLGQIEKHRLTNLRIIPHDAKLVLQQMFTSESLDGIHIFFPDPWPKARHHKRRLIQPDFVSLLCDRLKPGGYLHIATDWEDYATHILHVLRSEERFVNTAVDYAARPAYRPLTKFEQRGMKLGHTIRDIIFTRTALEHHHHHH | not soluble |
| MSSKLKISLSCGDYDRTRALFDGRAPIEGCEVTAVPLEPEEAFHRAFRYHEYDVTEISMSSHMMTTARGDNEYIAIPAFLSRVFRHSGIYVRTDRDIDKPQDLRGKTIGVPEYQITANVWIRGILEDAYGVKPQDIKWRRGGIEEPGRGERAPIELPDGIDLQQIPDDKTLSDMLEAGEIDGYIGARAPSCFLRGAPNVGRLFNDYLKTEQDYFRETRIFPIMHMVGIRRSLVEQNPWLPVSVYKAFLKAKMLAVKELNEICHLAVTLPWMVHHYNAARELMGDDYWPYGLDANRHVIETFARYHYGQGLSRRLVKPEELFAASSLDLSKIMAGDPNSLEHHHHHH | not soluble |
| MSSPRSNKPKIVNGPGGYILQDVPHLIDYLPDLPTYPNPLQDNPAYSVVKQYFVHADDSVPEKVVVHKDGPRGVHFRRAGPRQKVYFESDEVHACIVTCGGLCPGLNTVIREVVSSLSYMYGVKRILGIDGGYRGFYAKNTIPLNSKVVNDIHKRGGTIIGTSRGGHDTNKIVDSIQDRGINQVYIIGGDGTQRGASVIFEEIRRRRLKVAVVGIPKTIDNDIPVIDKSFGFDTAVEEAQRAINAAHVEAESNENGIGFVKLMGRYSGYIAMYATLASRDVDCCLIPESPFYLEGEGGLFEFIERRLKDHGHMVIVLAEGAGQDLMCKSMESTPMDASGNKLLKDVGLWLSQSIKDHFKKNKMVMNLKYIDPTYMIRAVPSNASDNVYCTLLAQSAVHGAMAGYTGYTSGLVNGRQTYIPFYRITETQNNVVITDRMWARLLSSTNQPSFLGPKDTSEEKKELPETPLLDDGAVDIPPVTKEVTK | soluble |
